From patent US20250084142A1 (INTARCIA THERAPEUTICS, published 2025)
Starred links: 1 amine or outer side, 2 acyl side, 3 side chain; linkers in the order of their positions; H or OH if unused. Non-standard residues stand in square brackets, D forms with d. Groups on a side chain read outwards from the residue. No end group written: not given here. *: point of attachment. C20 diacid = O=C(O)CCCCCCCCCCCCCCCCCCC(=O)*; γGlu = O=C(O)[C@H](CCC(=O)[*:2])N[*:1]; NMeY = CN[C@@H](Cc1ccc(O)cc1)C(=O)O

T1: NPY2R
T1 sequence (P49146 1-381, species assumed, looked up): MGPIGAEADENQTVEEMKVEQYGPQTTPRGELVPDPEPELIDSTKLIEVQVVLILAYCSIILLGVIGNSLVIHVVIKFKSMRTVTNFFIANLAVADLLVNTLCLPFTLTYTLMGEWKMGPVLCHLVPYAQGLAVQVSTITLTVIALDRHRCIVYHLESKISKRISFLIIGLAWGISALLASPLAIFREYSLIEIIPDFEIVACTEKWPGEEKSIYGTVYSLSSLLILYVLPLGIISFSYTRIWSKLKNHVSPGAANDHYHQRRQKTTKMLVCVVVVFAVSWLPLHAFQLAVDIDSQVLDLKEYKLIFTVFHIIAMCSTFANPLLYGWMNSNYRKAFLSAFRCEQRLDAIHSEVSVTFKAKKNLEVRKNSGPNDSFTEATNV

T2: NPY5R
T2 sequence (Q15761 1-445, species assumed, looked up): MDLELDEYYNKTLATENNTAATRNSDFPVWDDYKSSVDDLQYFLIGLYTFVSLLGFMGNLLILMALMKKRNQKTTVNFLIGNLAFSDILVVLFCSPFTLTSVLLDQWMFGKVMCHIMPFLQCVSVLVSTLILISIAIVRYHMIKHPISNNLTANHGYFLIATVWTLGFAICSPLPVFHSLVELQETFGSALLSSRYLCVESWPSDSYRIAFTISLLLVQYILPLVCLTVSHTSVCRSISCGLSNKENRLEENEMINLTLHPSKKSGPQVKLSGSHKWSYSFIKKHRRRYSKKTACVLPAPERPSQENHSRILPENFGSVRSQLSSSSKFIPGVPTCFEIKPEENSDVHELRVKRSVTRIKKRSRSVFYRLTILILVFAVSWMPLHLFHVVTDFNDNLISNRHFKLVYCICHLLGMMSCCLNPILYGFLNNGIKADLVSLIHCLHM


Assays:
NPY2R = molecular target: T1, NPY2R; assay: cell-based or functional assay
NPY5R = molecular target: T2, NPY5R; assay: cell-based or functional assay

Binder	NPY2R pEC50 (NPY2R)	NPY5R pEC50 (NPY5R)
PKPEAPK([γGlu-γGlu-C20 diacid])KDASPEEWNRYYADARHYLNWLTRQR[NMeY]-NH2 (N-terminus assumed; SMILES CC(C)C[C@H](NC(=O)[C@H](Cc1ccc(O)cc1)NC(=O)[C@H](Cc1c[nH]cn1)NC(=O)[C@H](CCCNC(=N)N)NC(=O)[C@H](C)NC(=O)[C@H](CC(=O)O)NC(=O)[C@H](C)NC(=O)[C@H](Cc1ccc(O)cc1)NC(=O)[C@H](Cc1ccc(O)cc1)NC(=O)[C@H](CCCNC(=N)N)NC(=O)[C@H](CC(N)=O)NC(=O)[C@H](Cc1c[nH]c2ccccc12)NC(=O)[C@H](CCC(=O)O)NC(=O)[C@H](CCC(=O)O)NC(=O)[C@@H]1CCCN1C(=O)[C@H](CO)NC(=O)[C@H](C)NC(=O)[C@H](CC(=O)O)NC(=O)[C@H](CCCCN)NC(=O)[C@H](CCCCNC(=O)CC[C@H](NC(=O)CC[C@H](NC(=O)CCCCCCCCCCCCCCCCCCC(=O)O)C(=O)O)C(=O)O)NC(=O)[C@@H]1CCCN1C(=O)[C@H](C)NC(=O)[C@H](CCC(=O)O)NC(=O)[C@@H]1CCCN1C(=O)[C@H](CCCCN)NC(=O)[C@@H]1CCCN1)C(=O)N[C@@H](CC(N)=O)C(=O)N[C@@H](Cc1c[nH]c2ccccc12)C(=O)N[C@@H](CC(C)C)C(=O)N[C@H](C(=O)N[C@@H](CCCNC(=N)N)C(=O)N[C@@H](CCC(N)=O)C(=O)N[C@@H](CCCNC(=N)N)C(=O)N(C)[C@@H](Cc1ccc(O)cc1)C(N)=O)[C@@H](C)O) [Compound A7]	9.7 -Log(EC50, M)	6 -Log(EC50, M)
PKPK([γGlu-γGlu-C20 diacid])APGKDASPEEWNRYYADARHYLNWLTRQR[NMeY]-NH2 (N-terminus assumed; SMILES CC(C)C[C@H](NC(=O)[C@H](Cc1ccc(O)cc1)NC(=O)[C@H](Cc1c[nH]cn1)NC(=O)[C@H](CCCNC(=N)N)NC(=O)[C@H](C)NC(=O)[C@H](CC(=O)O)NC(=O)[C@H](C)NC(=O)[C@H](Cc1ccc(O)cc1)NC(=O)[C@H](Cc1ccc(O)cc1)NC(=O)[C@H](CCCNC(=N)N)NC(=O)[C@H](CC(N)=O)NC(=O)[C@H](Cc1c[nH]c2ccccc12)NC(=O)[C@H](CCC(=O)O)NC(=O)[C@H](CCC(=O)O)NC(=O)[C@@H]1CCCN1C(=O)[C@H](CO)NC(=O)[C@H](C)NC(=O)[C@H](CC(=O)O)NC(=O)[C@H](CCCCN)NC(=O)CNC(=O)[C@@H]1CCCN1C(=O)[C@H](C)NC(=O)[C@H](CCCCNC(=O)CC[C@H](NC(=O)CC[C@H](NC(=O)CCCCCCCCCCCCCCCCCCC(=O)O)C(=O)O)C(=O)O)NC(=O)[C@@H]1CCCN1C(=O)[C@H](CCCCN)NC(=O)[C@@H]1CCCN1)C(=O)N[C@@H](CC(N)=O)C(=O)N[C@@H](Cc1c[nH]c2ccccc12)C(=O)N[C@@H](CC(C)C)C(=O)N[C@H](C(=O)N[C@@H](CCCNC(=N)N)C(=O)N[C@@H](CCC(N)=O)C(=O)N[C@@H](CCCNC(=N)N)C(=O)N(C)[C@@H](Cc1ccc(O)cc1)C(N)=O)[C@@H](C)O) [Compound A6]	8.9 -Log(EC50, M)	7.7 -Log(EC50, M)
PKPEAPGKDASPEEWK([γGlu-γGlu-C20 diacid])RYYADARHYLNWLTRQR[NMeY]-NH2 (N-terminus assumed; SMILES CC(C)C[C@H](NC(=O)[C@H](Cc1ccc(O)cc1)NC(=O)[C@H](Cc1c[nH]cn1)NC(=O)[C@H](CCCNC(=N)N)NC(=O)[C@H](C)NC(=O)[C@H](CC(=O)O)NC(=O)[C@H](C)NC(=O)[C@H](Cc1ccc(O)cc1)NC(=O)[C@H](Cc1ccc(O)cc1)NC(=O)[C@H](CCCNC(=N)N)NC(=O)[C@H](CCCCNC(=O)CC[C@H](NC(=O)CC[C@H](NC(=O)CCCCCCCCCCCCCCCCCCC(=O)O)C(=O)O)C(=O)O)NC(=O)[C@H](Cc1c[nH]c2ccccc12)NC(=O)[C@H](CCC(=O)O)NC(=O)[C@H](CCC(=O)O)NC(=O)[C@@H]1CCCN1C(=O)[C@H](CO)NC(=O)[C@H](C)NC(=O)[C@H](CC(=O)O)NC(=O)[C@H](CCCCN)NC(=O)CNC(=O)[C@@H]1CCCN1C(=O)[C@H](C)NC(=O)[C@H](CCC(=O)O)NC(=O)[C@@H]1CCCN1C(=O)[C@H](CCCCN)NC(=O)[C@@H]1CCCN1)C(=O)N[C@@H](CC(N)=O)C(=O)N[C@@H](Cc1c[nH]c2ccccc12)C(=O)N[C@@H](CC(C)C)C(=O)N[C@H](C(=O)N[C@@H](CCCNC(=N)N)C(=O)N[C@@H](CCC(N)=O)C(=O)N[C@@H](CCCNC(=N)N)C(=O)N(C)[C@@H](Cc1ccc(O)cc1)C(N)=O)[C@@H](C)O) [Compound A9]	9.6 -Log(EC50, M)	6 -Log(EC50, M)
PK([γGlu-γGlu-C20 diacid])PEAPGKDASPEEWNRYYADARHYLNWLTRQR[NMeY]-NH2 (N-terminus assumed; SMILES CC(C)C[C@H](NC(=O)[C@H](Cc1ccc(O)cc1)NC(=O)[C@H](Cc1c[nH]cn1)NC(=O)[C@H](CCCNC(=N)N)NC(=O)[C@H](C)NC(=O)[C@H](CC(=O)O)NC(=O)[C@H](C)NC(=O)[C@H](Cc1ccc(O)cc1)NC(=O)[C@H](Cc1ccc(O)cc1)NC(=O)[C@H](CCCNC(=N)N)NC(=O)[C@H](CC(N)=O)NC(=O)[C@H](Cc1c[nH]c2ccccc12)NC(=O)[C@H](CCC(=O)O)NC(=O)[C@H](CCC(=O)O)NC(=O)[C@@H]1CCCN1C(=O)[C@H](CO)NC(=O)[C@H](C)NC(=O)[C@H](CC(=O)O)NC(=O)[C@H](CCCCN)NC(=O)CNC(=O)[C@@H]1CCCN1C(=O)[C@H](C)NC(=O)[C@H](CCC(=O)O)NC(=O)[C@@H]1CCCN1C(=O)[C@H](CCCCNC(=O)CC[C@H](NC(=O)CC[C@H](NC(=O)CCCCCCCCCCCCCCCCCCC(=O)O)C(=O)O)C(=O)O)NC(=O)[C@@H]1CCCN1)C(=O)N[C@@H](CC(N)=O)C(=O)N[C@@H](Cc1c[nH]c2ccccc12)C(=O)N[C@@H](CC(C)C)C(=O)N[C@H](C(=O)N[C@@H](CCCNC(=N)N)C(=O)N[C@@H](CCC(N)=O)C(=O)N[C@@H](CCCNC(=N)N)C(=O)N(C)[C@@H](Cc1ccc(O)cc1)C(N)=O)[C@@H](C)O) [Compound A5]	7.7 -Log(EC50, M)	8 -Log(EC50, M)
PKPEK([γGlu-γGlu-C20 diacid])PGEDASPKEWDRYYKDLRHYLNWLTRQRF-NH2 (N-terminus assumed; SMILES CC(C)C[C@H](NC(=O)[C@H](CC(=O)O)NC(=O)[C@H](CCCCN)NC(=O)[C@H](Cc1ccc(O)cc1)NC(=O)[C@H](Cc1ccc(O)cc1)NC(=O)[C@H](CCCNC(=N)N)NC(=O)[C@H](CC(=O)O)NC(=O)[C@H](Cc1c[nH]c2ccccc12)NC(=O)[C@H](CCC(=O)O)NC(=O)[C@H](CCCCN)NC(=O)[C@@H]1CCCN1C(=O)[C@H](CO)NC(=O)[C@H](C)NC(=O)[C@H](CC(=O)O)NC(=O)[C@H](CCC(=O)O)NC(=O)CNC(=O)[C@@H]1CCCN1C(=O)[C@H](CCCCNC(=O)CC[C@H](NC(=O)CC[C@H](NC(=O)CCCCCCCCCCCCCCCCCCC(=O)O)C(=O)O)C(=O)O)NC(=O)[C@H](CCC(=O)O)NC(=O)[C@@H]1CCCN1C(=O)[C@H](CCCCN)NC(=O)[C@@H]1CCCN1)C(=O)N[C@@H](CCCNC(=N)N)C(=O)N[C@@H](Cc1c[nH]cn1)C(=O)N[C@@H](Cc1ccc(O)cc1)C(=O)N[C@@H](CC(C)C)C(=O)N[C@@H](CC(N)=O)C(=O)N[C@@H](Cc1c[nH]c2ccccc12)C(=O)N[C@@H](CC(C)C)C(=O)N[C@H](C(=O)N[C@@H](CCCNC(=N)N)C(=O)N[C@@H](CCC(N)=O)C(=O)N[C@@H](CCCNC(=N)N)C(=O)N[C@@H](Cc1ccccc1)C(N)=O)[C@@H](C)O) [Compound A78]	10.2 -Log(EC50, M)	8.5 -Log(EC50, M)
PKPEAPGKDASPK([γGlu-γGlu-C20 diacid])EWNRYYADARHYLNWLTRQR[NMeY]-NH2 (N-terminus assumed; SMILES CC(C)C[C@H](NC(=O)[C@H](Cc1ccc(O)cc1)NC(=O)[C@H](Cc1c[nH]cn1)NC(=O)[C@H](CCCNC(=N)N)NC(=O)[C@H](C)NC(=O)[C@H](CC(=O)O)NC(=O)[C@H](C)NC(=O)[C@H](Cc1ccc(O)cc1)NC(=O)[C@H](Cc1ccc(O)cc1)NC(=O)[C@H](CCCNC(=N)N)NC(=O)[C@H](CC(N)=O)NC(=O)[C@H](Cc1c[nH]c2ccccc12)NC(=O)[C@H](CCC(=O)O)NC(=O)[C@H](CCCCNC(=O)CC[C@H](NC(=O)CC[C@H](NC(=O)CCCCCCCCCCCCCCCCCCC(=O)O)C(=O)O)C(=O)O)NC(=O)[C@@H]1CCCN1C(=O)[C@H](CO)NC(=O)[C@H](C)NC(=O)[C@H](CC(=O)O)NC(=O)[C@H](CCCCN)NC(=O)CNC(=O)[C@@H]1CCCN1C(=O)[C@H](C)NC(=O)[C@H](CCC(=O)O)NC(=O)[C@@H]1CCCN1C(=O)[C@H](CCCCN)NC(=O)[C@@H]1CCCN1)C(=O)N[C@@H](CC(N)=O)C(=O)N[C@@H](Cc1c[nH]c2ccccc12)C(=O)N[C@@H](CC(C)C)C(=O)N[C@H](C(=O)N[C@@H](CCCNC(=N)N)C(=O)N[C@@H](CCC(N)=O)C(=O)N[C@@H](CCCNC(=N)N)C(=O)N(C)[C@@H](Cc1ccc(O)cc1)C(N)=O)[C@@H](C)O) [Compound A8]	9.6 -Log(EC50, M)	7.1 -Log(EC50, M)
PKPEAPGK([γGlu-γGlu-C20 diacid])DASPEEWNRYYADLRHYLNWLTRQRF-NH2 [Compound A13]	10.2 -Log(EC50, M)	8.7 -Log(EC50, M)
